Publication PMC3956929

Assays:
[1] = target: GAL4 DNA-binding domain-fused Bombyx mori Siwi (pDBD-Siwi) (Bombyx mori) (UniProt A8D8P8); assay: two-hybrid; insect two-hybrid (I2H) in BmN4 cells: GAL4 DBD bait, p65 AD prey, 4xUAS-TATA-Luc reporter, luciferase at 72 h post-transfection, relative to the pUC18 control prey; also in BmN4-SID1 cells 72 h after dsRNA against HP1a, HP1b, Ago3, Siwi, putative piRNA-related genes or GFP (control)
[2] = target: GAL4 DNA-binding domain-fused Bombyx mori Ago3 (pDBD-Ago3) (Bombyx mori) (UniProt A9ZSZ2); assay: as above
Sequence of UniProt A9ZSZ2 (A9ZSZ2 whole entry, the tested form may be a part): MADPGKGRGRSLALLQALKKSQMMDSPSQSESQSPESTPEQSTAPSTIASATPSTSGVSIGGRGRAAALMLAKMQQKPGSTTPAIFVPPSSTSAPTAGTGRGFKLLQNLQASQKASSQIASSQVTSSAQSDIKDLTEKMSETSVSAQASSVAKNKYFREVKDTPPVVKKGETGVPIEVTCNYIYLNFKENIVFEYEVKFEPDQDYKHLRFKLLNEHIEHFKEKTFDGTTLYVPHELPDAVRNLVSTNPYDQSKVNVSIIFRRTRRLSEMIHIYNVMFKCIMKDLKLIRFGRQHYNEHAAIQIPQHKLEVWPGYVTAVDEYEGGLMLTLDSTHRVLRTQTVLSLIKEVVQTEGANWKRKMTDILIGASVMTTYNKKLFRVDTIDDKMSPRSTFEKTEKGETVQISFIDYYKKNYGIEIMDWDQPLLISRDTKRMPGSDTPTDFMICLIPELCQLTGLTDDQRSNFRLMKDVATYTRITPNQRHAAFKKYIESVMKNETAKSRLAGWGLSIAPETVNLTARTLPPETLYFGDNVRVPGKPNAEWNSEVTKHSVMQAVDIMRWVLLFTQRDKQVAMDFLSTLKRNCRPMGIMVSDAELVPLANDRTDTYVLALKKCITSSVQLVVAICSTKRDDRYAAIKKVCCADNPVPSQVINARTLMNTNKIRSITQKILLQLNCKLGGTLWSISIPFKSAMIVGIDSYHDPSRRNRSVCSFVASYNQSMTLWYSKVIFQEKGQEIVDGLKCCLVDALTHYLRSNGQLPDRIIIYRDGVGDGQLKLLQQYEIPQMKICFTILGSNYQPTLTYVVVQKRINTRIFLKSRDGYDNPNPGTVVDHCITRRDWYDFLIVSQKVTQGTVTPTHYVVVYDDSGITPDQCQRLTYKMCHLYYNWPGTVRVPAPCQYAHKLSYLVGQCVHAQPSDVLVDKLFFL

Sequence of UniProt A8D8P8 (A8D8P8 whole entry, the tested form may be a part): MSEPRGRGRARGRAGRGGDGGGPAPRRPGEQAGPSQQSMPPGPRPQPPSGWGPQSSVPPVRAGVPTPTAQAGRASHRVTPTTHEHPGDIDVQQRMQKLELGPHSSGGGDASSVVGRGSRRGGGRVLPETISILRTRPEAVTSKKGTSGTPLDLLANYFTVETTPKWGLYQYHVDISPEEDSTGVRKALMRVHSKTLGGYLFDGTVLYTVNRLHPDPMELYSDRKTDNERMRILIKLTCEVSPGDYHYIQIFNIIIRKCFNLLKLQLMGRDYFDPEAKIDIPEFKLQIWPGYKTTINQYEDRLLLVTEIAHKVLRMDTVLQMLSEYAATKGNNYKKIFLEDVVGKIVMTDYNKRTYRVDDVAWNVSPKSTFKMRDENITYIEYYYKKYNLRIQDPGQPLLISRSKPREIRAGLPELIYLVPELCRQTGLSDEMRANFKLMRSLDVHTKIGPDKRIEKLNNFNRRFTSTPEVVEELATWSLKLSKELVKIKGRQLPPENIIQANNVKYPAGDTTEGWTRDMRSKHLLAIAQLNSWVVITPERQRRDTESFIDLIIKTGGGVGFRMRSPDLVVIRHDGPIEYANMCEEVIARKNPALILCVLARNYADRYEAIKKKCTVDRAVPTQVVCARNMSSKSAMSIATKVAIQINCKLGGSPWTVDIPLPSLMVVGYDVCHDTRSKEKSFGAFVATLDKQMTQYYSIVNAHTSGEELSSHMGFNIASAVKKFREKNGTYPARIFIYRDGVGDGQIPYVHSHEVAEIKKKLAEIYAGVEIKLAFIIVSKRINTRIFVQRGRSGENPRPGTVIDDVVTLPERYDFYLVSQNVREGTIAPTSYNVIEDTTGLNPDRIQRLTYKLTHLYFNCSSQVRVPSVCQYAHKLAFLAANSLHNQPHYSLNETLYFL

fold increase of reporter activity over the pUC18 control [1]: > 10 fold
fold increase of reporter activity over the pUC18 control [2]: > 10 fold
Substance: p65 activation domain-fused Bombyx mori HP1a (pAD-HP1a) (natural protein)
